Values belong to the molecule of their own block, whether it stands above or below them.
What was measured:
Assay in all cases: pull-down
[1] = biological target: the active ARF1 mutants ARF-Q71L and ARF1-Δ17-Q71L
GST-ARF1-Q71L = GST-ARF1-Q71L (human, UniProt P84077 1-181, Q71L)
GST-ARF1 Δ17-Q71L = GST-ARF1 Δ17-Q71L (human, UniProt P84077 18-181, Q71L)
GST-ARF1 Δ17-Q71L, sequence (P84077 18-181 Q71L): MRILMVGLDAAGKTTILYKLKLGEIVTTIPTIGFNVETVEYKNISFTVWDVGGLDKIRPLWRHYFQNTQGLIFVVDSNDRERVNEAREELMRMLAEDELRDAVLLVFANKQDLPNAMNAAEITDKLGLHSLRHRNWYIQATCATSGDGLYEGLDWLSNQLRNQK

GST-ARF1-Q71L, sequence (P84077 whole entry Q71L): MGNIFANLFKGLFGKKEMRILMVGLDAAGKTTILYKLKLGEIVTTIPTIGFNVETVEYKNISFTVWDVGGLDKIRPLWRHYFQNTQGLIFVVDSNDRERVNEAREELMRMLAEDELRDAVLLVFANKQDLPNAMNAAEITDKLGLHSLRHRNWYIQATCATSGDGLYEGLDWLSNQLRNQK

Molecule: His-tagged C1b domain of PKD2 (domain or fragment)
fold binding compared with wild-type or dominant-negative ARF1 [1]: 1.5 to 1.75 fold

fold binding compared with ARF1-WT or ARF1-T31N (GST-ARF1-Q71L): 2 fold
fold binding compared with ARF1-WT (GST-ARF1 Δ17-Q71L): 2 fold
B1: EGFP-PKD2-WT (protein kinase D2, wild type) (enzyme, UniProt Q9BZL6 1-878, looked up)
chain: MATAPSYPAGLPGSPGPGSPPPPGGLELQSPPPLLPQIPAPGSGVSFHIQIGLTREFVLLPAASELAHVKQLACSIVDQKFPECGFYGLYDKILLFKHDPTSANLLQLVRSSGDIQEGDLVEVVLSASATFEDFQIRPHALTVHSYRAPAFCDHCGEMLFGLVRQGLKCDGCGLNYHKRCAFSIPNNCSGARKRRLSSTSLASGHSVRLGTSESLPCTAEELSRSTTELLPRRPPSSSSSSSASSYTGRPIELDKMLLSKVKVPHTFLIHSYTRPTVCQACKKLLKGLFRQGLQCKDCKFNCHKRCATRVPNDCLGEALINGDVPMEEATDFSEADKSALMDESEDSGVIPGSHSENALHASEEEEGEGGKAQSSLGYIPLMRVVQSVRHTTRKSSTTLREGWVVHYSNKDTLRKRHYWRLDCKCITLFQNNTTNRYYKEIPLSEILTVESAQNFSLVPPGTNPHCFEIVTANATYFVGEMPGGTPGGPSGQGAEAARGWETAIRQALMPVILQDAPSAPGHAPHRQASLSISVSNSQIQENVDIATVYQIFPDEVLGSGQFGVVYGGKHRKTGRDVAVKVIDKLRFPTKQESQLRNEVAILQSLRHPGIVNLECMFETPEKVFVVMEKLHGDMLEMILSSEKGRLPERLTKFLITQILVALRHLHFKNIVHCDLKPENVLLASADPFPQVKLCDFGFARIIGEKSFRRSVVGTPAYLAPEVLLNQGYNRSLDMWSVGVIMYVSLSGTFPFNEDEDINDQIQNAAFMYPASPWSHISAGAIDLINNLLQVKMRKRYSVDKSLSHPWLQEYQTWLDLRELEGKMGERYITHESDDARWEQFAAEHPLPGSGLPTDRDLGGACPPQDHDMQGLAERISVL
